Changes are numbered by the printed parent chain.
T1: mouse IL-17A (mouse, UniProt Q62386 26-158, limits assumed)
T1 construct: Purified recombinant protein in SPR; also called MuIL-17A; murine IL-17A
T1 sequence (looked up): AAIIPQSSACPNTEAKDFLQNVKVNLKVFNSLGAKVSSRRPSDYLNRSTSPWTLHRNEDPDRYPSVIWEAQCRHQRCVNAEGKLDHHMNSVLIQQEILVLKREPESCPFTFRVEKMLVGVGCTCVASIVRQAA

T2: rat IL-17A (rat, UniProt Q61453 18-150, limits assumed)
T2 construct: Purified recombinant protein in SPR
T2 sequence (looked up): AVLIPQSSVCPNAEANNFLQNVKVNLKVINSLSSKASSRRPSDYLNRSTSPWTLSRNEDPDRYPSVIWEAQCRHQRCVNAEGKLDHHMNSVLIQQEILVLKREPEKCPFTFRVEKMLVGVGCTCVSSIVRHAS

B1: IL17-B6-29 (antibody, V domains shown)
VH: EVQLVQSGAEVKKPGSSVKVSCKASGGSFISYGYNWVRQAPGQGLEWMGGITPFFGTADYAQKFQGRVTITADESTTTAYMELSGLTSDDTAVYYCAREPNDFWNGYYTTHHFDYWGQGTTVTVSS
VL: DVVMTQSPDFQSVTPKEKVTITCRASQNIGSALHWYQQKPDQSPKLLIKYASQSISGVPSRFSGSGSGTDFTLTINGLEAEDAGTYYCHQSTSLPHTFGQGTKLDIKR
B2: IL17-TN-K7-B6 (antibody, V domains shown)
VH: B1 VH with S16E, V18L, V20I, I30R, Y34I, N35S, F54I, F55L, D59N, T121P
VL: B1 VL
notes: Fully human antibody
B3: IL17-LN-K9-F5 (antibody, V domains shown)
VH: EVQLVQSGAEVKNPGASVKVSCKVSGSRLSDLAMHWVRQAPGKGPEWMGGFDPDEGETVYAQNFQGRVSMTEDTSSDTAYMELNSLRSEDTAVYYCATIRPWLGGAYYFDNWGQGTLVTVSS
VL: ETTLTQSPAFMSATPGDKVNISCKASQDIDDDMNWYQQKPGEAALFIIQEATTLVPGIPPRFSGSGYGTDFTLTVNNIQSEDAAYYFCLQHDSFPYTFGQGTKLEIKR
notes: Fully human monoclonal antibody from mRNA display
B4: IL17-B6-46 (antibody, V domains shown)
VH: EVQLVQSGAEVKKPGESLKISCKASGGSFISYGISWVRQAPGQGLEWMGGITHFFGSTDYAQKFQGRVTITADESTTTAYMELSGLTSDDTAVYYCAREPNEFWNGYYTTHDFDSWGQGTTVTVSS
VL: EIVLTQSPDFQSVTPKEKVTITCRASQAIGSELHWYQQKPDQSPKLLIKYASYSVSGVPSRFSGSGSGTDFTLTINGLEAEDAGTYYCHQSASLPYTFGQGTKVDIK
notes: also called pJP253 B6.1 #46VH / pJP254 B6.1 #46Vk
B5: IL17-B6-16 (antibody, V domains shown)
VH: EVQLVQSGAEVKMPGSSLKISCKASGGSFRGYGISWVRQAPGQGLEWMGGITPFFGWADYAQKFQGRVTITADESTTTAYMELSGLTSDDTAVYYCARDPNEFWNGYYDTHHFDYWGQGTTVTVSS
VL: B4 VL with A28D, E32A, Y53H, A92D, S93I, Y96H, Q100P
B6: IL17-B6-15 (antibody, V domains shown)
VH: B4 VH with I30S, S31G, I34T, S57A, T58V, E99D, T109A, S115Y
VL: B4 VL with A28N, S31A, Y53H, V55I, S91T, A92D, S93R, T97S, Q100P
B7: IL17-B6-18 (antibody, V domains shown)
VH: EVQLVQSGAEVKKPGESLKVSCKASGGRFRTYGISWVRQAPGQGLEWMGGITNFFGWTDYAQKFQGRVTITADESTTTAYMELSGLTSDDTAVYYCARVPNEFWNGYYATDYFDNWGQGTTVTVSS
VL: B4 VL with A28E, S31A, E32S, Y53H, V55A, G77S, G84A, A92D, S93G
notes: also called pJP251 B6.1 #18VH / pJP250 B6.1 #18Vk
B8: IL17-h5C5.18 (antibody, V domains shown)
VH: EVQLVQSGAEVKKPGASVKVSCKASGYTFTDYEFHWVRQAPGQGLEWIGVIHPGNGGTAYNQNFRDRATLTADKSTSTAYMELSSLRSEDTAVYYCTRFLTYEGYFDYWGQGTLVTVSS
VL: NIVMTQSPSSLSASVGDRVTITCKASQSVSIDVGWFQQKPGKSPKLLIYHASNRYTGVPSRFSGSGSGTDFTFTISSLQPEDFATYFCQQDYSSPYTFGQGTKLEIKR
notes: IgG; constant regions not specified; also called h5C5.18 (VH.1b-Vk.1c)
B9: IL17-G9-3 (antibody, V domains shown)
VH: EVQLLESGGGVVQPGRSLRLSCAASGFIFSNYGMHWVRQAPGKGLEWVAVISYDGSNKYYADSVKGRFTISRDNSKNTLYLEMNSLRPEDTAVYYCAKVGASGDYYYSYGLDVWGQGTTVTVSS
VL: QSVLTQPPSASGTPGQTVSISCSGRNSNIGSHYVHWYQQVPGAAPKLLMYDFGLRPSGVPDRFSVSQSGTSASLAISGLQSEDEADYYCATWDDMLGGYVFGTGTKVTVLG
B10: IL17-G9-M1 (antibody, V domains shown)
VH: B9 VH with S56G, N57Y, V99L, G100S, A101L, L111F, V113G
VL: B9 VL with R25S, N26K, L54Q, V65G, A90G, M95W
B11: IL17-G9-5 (antibody, V domains shown)
VH: B9 VH with S30R, S52A, N57R, K58Q, A61S, V113L
VL: QSVLTQPPSASGTPGQTVSISCSGRQSNIGRHYVDWYQQVPGAAPKLLMYYDSIRPSGVPDRFSGSQSGTSASLAISGLQSEDEADYYCGMWDDSLAGYVFGSGTKVTVLG
B12: IL17-G9-6 (antibody, V domains shown)
VH: B9 VH with N31D
VL: B11 VL with R31N, M49I, Y51G, S53V, G90A, M91T, S95W
B13: IL17-G9-M1 (antibody, V domains shown)
VH: B9 VH with S56G, N57Y, V99L, G100S, A101L, L111F, V113G
VL: B9 VL with R25S, N26K, L54Q, V65G, A90G, M95W
B14: IL17-G9-4 (antibody, V domains shown)
VH: B9 VH
VL: B11 VL with G90A, M91T, A97G
notes: converted into IgG
B15: IL17-G9-M2 (antibody, V domains shown)
VH: B9 VH
VL: B9 VL with R25H, S31Y, M49I, D51G, F52D, L54W, V65G, A90G, M95W
notes: converted into IgG
B16: IL17-G9-2 (antibody, V domains shown)
VH: B9 VH with S30R
VL: B11 VL with R25S, Q26N, Y33P, M49I, S53D, I54Q, G90A, M91T, A97G

Experiments:
human IL-17A [1] = molecular target: T3, human IL-17A (human, UniProt Q16552 24-155); experiment: ELISA, captured antibody, serially diluted biotin-IL-17 (Example 1.5.1)
T3 construct: Biotinylated in the ELISA; also called hIL-17; Hu IL-17A
T3 sequence (Q16552 24-155 limits assumed): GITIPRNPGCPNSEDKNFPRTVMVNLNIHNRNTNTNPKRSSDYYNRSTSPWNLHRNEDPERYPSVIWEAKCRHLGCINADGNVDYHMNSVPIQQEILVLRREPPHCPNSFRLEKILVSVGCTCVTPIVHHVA
Protocol: The following protocol is used to characterize the binding of IL-17 antibodies to human IL-17 by enzyme-linked immunosorbent assay (ELISA). […] 1. Coat ELISA plate with 50 μl per well of Goat anti Mouse IgG-Fc at 2 ug/ml, overnight at 4° C. […] 2. Wash plate 3×PBS/Tween. […] 3. Add 50 μl Mab diluted to 1 μg/ml in PBS/0.1% BSA to appropriate wells. Incubate 1 hr at room temperature (RT). […] 4. Wash plate 3× with PBS/Tween. […] 5. Add 50 μl of serial diluted biotin-IL17 (human IL-17, IL-17A/F, cyno IL-17) to appropriate wells. Incubate 1 hr at room temperature (RT). […] 6. Wash plate 3× with PBS/Tween. […] 7. […] Incubate 1 hr at RT. […] 8. Wash plate 3× with PBS/Tween. […] 9. […] 10. Stop reaction with 50 μl 2N H₂SO₄. […] Read absorbance at 450 nm.

human IL-17A [2] = molecular target: T3, human IL-17A; experiment: cell-based or functional assay
human IL-17A/F [3] = molecular target: T4, human IL-17A/F (human, UniProt Q16552 24-155; Q96PD4 31-163); experiment: SPR Biacore, captured binder
T4 construct: Heterodimer of IL-17A and IL-17F, purified recombinant; also called HuIL-17A/F; Hu IL-17A/F
T4 sequence (Q16552 24-155 limits assumed, chain 1 of 2): as the sequence (Q16552 24-155 limits assumed) above
T4 sequence (Q96PD4 31-163 limits assumed, chain 2 of 2): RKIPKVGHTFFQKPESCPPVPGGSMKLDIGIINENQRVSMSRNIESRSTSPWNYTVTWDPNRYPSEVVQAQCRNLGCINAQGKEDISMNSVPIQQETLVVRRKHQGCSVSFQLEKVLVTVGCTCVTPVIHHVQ
Protocol: (§1) The binding of antibodies to purified recombinant human, cyno, rat, mouse, rabbit IL-17 and human IL-17A/F were determined by surface plasmon resonance-based measurements with a Biacore® 3000 instrument (Biacore® AB, Uppsala, Sweden) using running HBS-EP (10 mM HEPES [pH 7.4], 150 mM NaCl, 3 mM EDTA, and 0.005% surfactant P20) at 25° C. […] Approximately 5000 RU of goat anti-mouse or anti-human IgG (Fcγ) fragment specific polyclonal antibody (Pierce Biotechnology Inc, Rockford, Ill.) diluted in 10 mM sodium acetate (pH 4.5) was directly immobilized across a CM5 research grade biosensor chip using a standard amine coupling kit according to manufacturer's instructions and procedures at 25 μg/ml. Unreacted moieties on the biosensor surface were blocked with ethanolamine. Modified carboxymethyl dextran surface in flowcell 2 and 4 was used as a reaction surface. Unmodified carboxymethyl dextran without goat anti-mouse or anti-human IgG in flow cell 1 and 3 was used as the reference surface. For kinetic analysis, rate equations derived from the 1:1 Langmuir binding model were fitted simultaneously to association and dissociation phases of all eight injections (using global fit analysis) with the use of Biaevaluation 4.0.1 software. Purified antibodies were diluted in HEPES-buffered saline for capture across goat anti-mouse or anti-human IgG specific reaction surfaces. Antibodies to be captured as a ligand (25 μg/ml) were injected over reaction matrices at a flow rate of 5 μl/min. The association and dissociation rate constants, kon (unit M-1s-1) and koff (unit s-1) were determined under a continuous flow rate of 25 μl/min. Rate constants were derived by making kinetic binding measurements at ten different antigen concentrations ranging from 10 nM to 200 nM. The equilibrium dissociation constant (unit M) of the reaction between antibodies and recombinant purified IL-17 antigens was then calculated from the kinetic rate constants by the following formula: KD=koff/kon. Binding was recorded as a function of time and kinetic rate constants are calculated. In this assay, on-rates as fast as 10⁶ M⁻¹ s⁻¹ and off-rates as slow as 10⁻⁶ s⁻¹ can be measured.

human IL-17A [4] = molecular target: T5, human IL-17A (human, UniProt Q16552 24-155); experiment: SPR Biacore, captured binder
T5 construct: Purified recombinant; biotinylated in the ELISA; also called HuIL-17A; Hu IL-17A
T5 sequence (Q16552 24-155 limits assumed): as the sequence (Q16552 24-155 limits assumed) above
Protocol: as §1

cyno IL-17A = cyno IL-17A (cynomolgus monkey, UniProt A0A2K5TTB0 24-155); experiment: SPR Biacore, captured binder
Protocol: as §1

mouse IL-17A = molecular target: T1, mouse IL-17A; experiment: SPR (Biacore 3000), antibody captured by anti-Fc, antigen in solution;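 also: purified recombinant IL-17 antigens flowed over captured antibodies in HBS-EP buffer, global Langmuir one-to-one fit of association and dissociation phases, KD derived from koff over kon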
Protocol: as §1

rat IL-17A = molecular target: T2, rat IL-17A; experiment: as above
Protocol: as §1

human IL-17A/F [5] = molecular target: T6, human IL-17A/F (human, UniProt Q16552 24-155; Q96PD4 31-163); experiment: as above
T6 construct: Recombinant; biotinylated in the ELISA; also called hIL-17A/F; HuIL-17A/F
T6 sequence (Q16552 24-155, chain 1 of 2): as the sequence (Q16552 24-155 limits assumed) above
T6 sequence (Q96PD4 31-163, chain 2 of 2): as the sequence (Q96PD4 31-163 limits assumed, chain 2 of 2) above
Protocol: as §1

human IL-17A [6] = molecular target: T7, human IL-17A (human, UniProt Q16552 24-155); experiment: as above
T7 construct: Recombinant; biotinylated in the ELISA; also called hIL-17; hIL17A
T7 sequence (Q16552 24-155): as the sequence (Q16552 24-155 limits assumed) above
Protocol: as §1

cynomolgus monkey IL-17A = molecular target: T8, cynomolgus monkey IL-17A (cynomolgus monkey, UniProt A0A2K5TTB0 24-155); experiment: as above
T8 construct: biotinylated in the ELISA; also called cyno IL-17; Cyno IL-17A
Protocol: as §1

human IL-17A [7] = molecular target: T7, human IL-17A; experiment: hIL17A ELISA
Protocol: The following protocol is used to characterize the binding of IL-17 antibodies to human IL-17 by enzyme-linked immunosorbent assay (ELISA). […] Coat ELISA plate with 50 μl per well of Goat anti Mouse IgG-Fc at 2 ug/ml, overnight at 4° C. […] Wash plate 3×PBS/Tween. […] Add 50 μl Mab diluted to 1 μg/ml in PBS/0.1% BSA to appropriate wells. Incubate 1 hr at room temperature (RT). […] Wash plate 3× with PBS/Tween. […] Add 50 μl of serial diluted biotin-IL17 (human IL-17, IL-17A/F, cyno IL-17) to appropriate wells. Incubate 1 hr at room temperature (RT). […] Wash plate 3× with PBS/Tween. […] Incubate 1 hr at RT. […] Wash plate 3× with PBS/Tween. […] Stop reaction with 50 μl 2N H₂SO₄. […] Read absorbance at 450 nm.

T8 sequence (A0A2K5TTB0 entry or part of it): as the sequence (Q16552 24-155 limits assumed) above, with T3A, P8S, N34S, I77V, N78K, P104R counted along it
Chain of cyno IL-17A (A0A2K5TTB0 entry or part of it): as the sequence (Q16552 24-155 limits assumed) above, with T3A, P8S, N34S, I77V, N78K, P104R counted along it

| Binder | EC50 (human IL-17A [1]) [nM] | Potency (pM), IL-17-driven IL-6 production in HS27 cells (human IL-17A [2]) [pM] | Kd (human IL-17A/F [3]) [nM] | koff (human IL-17A/F [3]) [s⁻¹] | kon (human IL-17A/F [3]) [M⁻¹ s⁻¹] | Kd (human IL-17A [4]) [nM] | koff (human IL-17A [4]) [s⁻¹] | kon (human IL-17A [4]) [M⁻¹ s⁻¹] | Kd (cyno IL-17A) [nM] | koff (cyno IL-17A) [s⁻¹] | kon (cyno IL-17A) [M⁻¹ s⁻¹] | further results |
| --- | --- | --- | --- | --- | --- | --- | --- | --- | --- | --- | --- | --- |
| B1 | 0.09 | 134 | – | – | – | – | – | – | – | – | – | – |
| B2 | – | – | 21.9 | 0.000175 | 7980 | 0.84 | 1.47e-05 | 17500 | 0.992 | 2.51e-05 | 25300 | – |
| B3 | 7.45 | – | – | – | – | – | – | – | – | – | – | – |
| B4 | 0.14 | 59 | – | – | – | – | – | – | – | – | – | – |
| B5 | – | – | 0.0164 | 6.57e-05 | 4e+06 | 0.00794 | 3e-05 | 3.78e+06 | 0.00483 | 4.48e-05 | 9.27e+06 | – |
| B6 | – | – | 0.00647 | 5.71e-05 | 8.82e+06 | 0.0073 | 6.02e-05 | 8.25e+06 | 0.00401 | 5.5e-05 | 1.37e+07 | – |
| B7 | 0.16 | – | – | – | – | – | – | – | – | – | – | – |
| B8 | – | – | – | – | – | – | – | – | – | – | – | Kd (mouse IL-17A): 2.91 nM; koff (mouse IL-17A): 0.0005 s⁻¹; kon (mouse IL-17A): 172000 M⁻¹ s⁻¹; Kd (rat IL-17A): 9.15 nM; koff (rat IL-17A): 0.00421 s⁻¹; kon (rat IL-17A): 460000 M⁻¹ s⁻¹; Kd (human IL-17A/F [5]): 1.31 nM; koff (human IL-17A/F [5]): 0.00101 s⁻¹; kon (human IL-17A/F [5]): 772000 M⁻¹ s⁻¹; Kd (human IL-17A [6]): 0.521 nM; koff (human IL-17A [6]): 0.000493 s⁻¹; kon (human IL-17A [6]): 947000 M⁻¹ s⁻¹; Kd (cynomolgus monkey IL-17A): 0.437 nM; koff (cynomolgus monkey IL-17A): 0.000254 s⁻¹; kon (cynomolgus monkey IL-17A): 581000 M⁻¹ s⁻¹; EC50 (human IL-17A [7]): 0.03 nM |
| B9 | 0.05 | 334 | – | – | – | – | – | – | – | – | – | – |
| B10 | – | – | 0.244 | 3.95e-05 | 162000 | 0.00322 | 1e-06 | 311000 | 0.00265 | 1e-06 | 377000 | – |
| B11 | 0.12 | 310 | – | – | – | – | – | – | – | – | – | – |
| B12 | 0.12 | 884 | – | – | – | – | – | – | – | – | – | – |
| B13 | 0.08 | 88 | – | – | – | – | – | – | – | – | – | – |
| B14 | – | – | 0.00424 | 1e-06 | 236000 | 0.00469 | 1e-06 | 213000 | 0.00377 | 1e-06 | 265000 | – |
| B15 | – | – | 0.0103 | 1.41e-06 | 137000 | 0.00826 | 2.32e-06 | 281000 | < 0.00245 | < 1e-06 | 408000 | – |
| B16 | – | – | 0.437 | 8.66e-05 | 198000 | < 0.00433 | < 1e-06 | 231000 | < 0.0027 | < 1e-06 | 371000 | – |

— patent US20140348834A1 (published 2014)
